Test results published in the nanobody polyreactivity screen of Harvey et al. (2022).

Experiment: yeast display, Sf9 membrane polyspecificity reagent, FACS + sequencing; frameworks hold sequencing errors
Summary of the method: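 Synthetic nanobody libraries on Saccharomyces cerevisiae BJ5465 were galactose-induced for 36–48 hours, stained 1 hour at 4 °C with 10% biotinylated, detergent-solubilized Sf9 membrane reagent and enriched on streptavidin microbeads. FACS then separated cells into low and high (top ~1%) gates by anti-HA (expression) and streptavidin (reagent binding) fluorescence. Genes were colony-PCR amplified, MiSeq 2 × 250 sequenced and CDR-length filtered. A clone's polyreactivity label is that of its gate of origin.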

Sequence	polyreactivity (PSR sort gate)
QVQLVESGGGLVQAGGSLRLSCAASGLIFGWNAMGWYRQAPGKERELVAAITWNGGSTYYADSVKGRFTISRDNAKITVSLQMNSLKPEDTAVYYCAARVGWNIRGYDYWGQGTQVTVSS	low polyreactivity
QVQLVESGGGLVQAGGSLRLSCAASGLIFGYYAMGCYRQAPGKERELVAAISSSGSTYYADSVKGRFTISCDNEKNTVYLQMNSLKPEDTAVYYCNVDISSYGGDYWGQGTQVTVSS	low polyreactivity
QVQLVESGGGLVQAGGSLRLSCAASGLIFGYYAMGWYRQAPGKEREFVAAIDGSDGTTYYADSVKGRFTISRDNAKNTVYLQMNSLKPEDTAVYFCNADSSSYSSDLGYDYWGQGTQVTVSS	low polyreactivity
QVQLVESGGGLVQAGGSLRLSCAASGLIFGYYAMGWYRQAPGKESELVDAFSFSGGSTYYADSVKGRFTISRDNAKNTVYLQMNSLKPEDTAVYYCAADLDGSSEYEYWGQCTQVTVSS	low polyreactivity
QVQLVESGGGLVQAGGSLRLSCAASGLIFGYYTMGWYRQAPGKEREFVAAISRGGGSTYYADSVNGRFTISRDNAKNTVYLHMNSLKPEDTAVYYCAAVVYGQVQPAYDYWGQGTQVTVLS	high polyreactivity
QVQLVESGGGLVQAGGSLRLSCAASGLIFHGYAMGWYRQAPGKERELVAVITKNGGRTYYADSVKGRFTISRDTAKNTVYLQMNSLKPEDTAVYYCATGKNYWRGYEYWGQGTQVTVSS	high polyreactivity
QVQLVESGGGLVQAGGSLRLSCAASGLIFHKNAMGWYRQAPGKERELVATITSGGNTNYADSVKGRFTISRDNAKNTVYLQMNSLKPEDTAVYYCAKDTHLLNEHSGTSREYDYWGQGTQVTVSS	low polyreactivity
QVQLVESGGGLVQAGGSLRLSCAASGLIFHQYAMGWYRQAPGKERELVAAITRSGTRTYYADSVKGRFTISRDNAKNTVYLQMNSLKPEDTAVYYCAAGDTQGVSMDYWGQGTQVNVSS	high polyreactivity
QVQLVESGGGLVQAGGSLRLSCAASGLIFIAYAMGWYRQAPGKDRELVAAISSGGSTYADSVKRRFTISRDNAKNTVYLQMNSLKPEETAVYYCNADSWSGTTYFNFNYWGQGTQVTVSS	low polyreactivity
QVQLVESGGGLVQAGGSLRLSCAASGLIFIAYAMGWYRQAPGKEREFVAAITWNGVSTYYADSVKGRFTISRDNAKNTVYLQMNSLKPEDTAVYYCNADYVFSPWAYEYWGQGTQVTVSS	high polyreactivity
QVQLVESGGGLVQAGGSLRLSCAASGLIFILYAMGWYRQAPGKERELVAAISWTGGSTYYADSVKGRFTISRDNAKNTVYLQMNSLKPEDTAVYYCNKVGVRSGARSIYVVRRYEYWGQGTQVTVSS	high polyreactivity
QVQLVESGGGLVQAGGSLRLSCAASGLIFIQYAMGWYRQAPGKEREFVAAISWSGTSTHYADSVKGRFTISRDNAKNTVYFQMNSLKPEDTAVYYCAAAKTGRGRGTTGYGYWGQGTLVTVSS	high polyreactivity
QVQLVESGGGLVQAGGSLRLSCAASGLIFITYAMGWYRQAPGKERELVATITLRGGSTYYADSVKGRFTISRDNAKNTVYLQMNSLKPEDTAVYYCAARYFSYYILRRIYPVREDYWGQGTQVTVSS	low polyreactivity
QVQLVESGGGLVQAGGSLRLSCAASGLIFKSYAMGWSRQAPGKERELVAVISSSGGSTYYADSVKGRFTISRDNAKNTVYLQMNSLKPEDTAVYYCAARSTYRTGDYWGQGTQVTVSS	high polyreactivity
QVQLVESGGGLVQAGGSLRLSCAASGLIFKVYALGWYRQAPGQERELVAAITYSGGSTDYADSVKGRFTISRDNAKNTVYLQMNSLKPEDTAVYYCNVETVGHVNSYGYDYWGQGTQVTVSS	low polyreactivity
QVQLVESGGGLVQAGGSLRLSCAASGLIFKWYGMGWYRQAPGKERELVAAITENGGSTYYADSVKGRFTISRDNAKNTVYLQMNSLKPEDTAVYYCAAETWADWYSEFYWGQGTQVTVSS	high polyreactivity
